Source: article PMC5564291 (Cell, 2016)
Blank lines part the entries; values can stand above or below the molecule they belong to.

Key:
Experiment in all cases: ITC
[1] = target: PSD-95 PDZ3 (aa R306–E398) (human) (UniProt P78352)
[2] = target: PSD-95 PDZ3-C (aa R306-S412) (human) (UniProt P78352)
[3] = target: PSD-95 PSG WT (aa R306-L721) (human, UniProt P78352-3 306-721)

Kd [1]: 27 µM
fold higher affinity than PDZ3 [2]: 15 fold
Molecule: N-terminal thioredoxin-tagged last 30 residues of SynGAP (SynGAP PBM) (domain or fragment)

B1: SynGAP CC-PBM L-D&K-D mutant (L1202D and K1252D) (domain or fragment, mouse, UniProt J3QQ18 1147-1308, looked up)
chain: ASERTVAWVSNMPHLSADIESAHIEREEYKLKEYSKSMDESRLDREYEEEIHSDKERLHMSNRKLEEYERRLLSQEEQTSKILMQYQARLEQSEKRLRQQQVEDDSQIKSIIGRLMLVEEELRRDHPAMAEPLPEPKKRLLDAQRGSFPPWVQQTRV
binding result [3]: binds
